Our source for the stoichiometry N values is paper PMC9285634.

The target of this experiment is Pyruvate kinase M2 (PKM2), endogenous (human (endogenous in HeLa and HCT116)) (UniProt P14618). The experiment is described as follows: cross-linking; cell or tumor tissue lysate in PBS with 0.1% Triton X-100; 4 ug protein crosslinked with 0.025% glutaraldehyde for 2 min at 37 C, stopped with Tris-HCl pH 8.0 50 mM; SDS-PAGE and WB with anti-PKM2; cells with HITT overexpression or KD, HITT fragments, miR-106, FBP; HCT116 xenografts.

Chain of Pyruvate kinase M2 (PKM2), endogenous, P14618 1-531 (enzyme; other documents disagree on this pair) (P14618 whole entry): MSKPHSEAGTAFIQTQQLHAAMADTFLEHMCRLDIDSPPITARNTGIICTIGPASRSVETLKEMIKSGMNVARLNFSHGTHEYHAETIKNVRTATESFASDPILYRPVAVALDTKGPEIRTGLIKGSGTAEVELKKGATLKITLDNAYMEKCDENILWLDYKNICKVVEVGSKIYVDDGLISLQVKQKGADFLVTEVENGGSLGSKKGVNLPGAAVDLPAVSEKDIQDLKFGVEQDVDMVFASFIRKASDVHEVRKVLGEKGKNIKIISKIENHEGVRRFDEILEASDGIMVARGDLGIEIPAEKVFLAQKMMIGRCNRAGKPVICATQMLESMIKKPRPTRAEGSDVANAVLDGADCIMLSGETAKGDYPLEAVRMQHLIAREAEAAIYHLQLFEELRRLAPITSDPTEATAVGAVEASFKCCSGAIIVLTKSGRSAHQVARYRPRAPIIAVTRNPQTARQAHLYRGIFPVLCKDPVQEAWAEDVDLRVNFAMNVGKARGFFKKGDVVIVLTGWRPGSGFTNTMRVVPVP

Substance “Pyruvate kinase M2 (PKM2), endogenous, P14618 1-531 (enzyme; other documents disagree on this pair)” showed a stoichiometry N of 2.

What is called stoichiometry N is a count of units in the complex or per binding partner.
